Reference: publication PMC12102759 (2025)

B1: SH3BP2 peptide 408-423 (SH3 domain-binding protein 2), 16-mer library wild type / TNKS ANK (TNKS 12 ANK repeats, residues 174-649) (parent complex)
chain 1: PQLPHLQRSPPDGQSF
chain 2: TGVPAVSGALRELLEACRNGDVSRVKRLVDAANVNAKDMAGRKSSPLHFAAGFGRKDVVEHLLQMGANVHARDDGGLIPLHNACSFGHAEVVSLLLCQGADPNARDNWNYTPLHEAAIKGKIDVCIVLLQHGADPNIRNTDGKSALDLADPSAKAVLTGEYKKDELLEAARSGNEEKLMALLTPLNVNCHASDGRKSTPLHLAAGYNRVRIVQLLLQHGADVHAKDKGGLVPLHNACSYGHYEVTELLLKHGACVNAMDLWQFTPLHEAASKNRVEVCSLLLSHGADPTLVNCHGKSAVDMAPTPELRERLTYEFKGHSLLQAAREADLAKVKKTLALEIINFKQPQSHETALHCAVASLHPKRKQVTELLLRKGANVNEKNKDFMTPLHVAAERAHNDVMEVLHKHGAKMNALDTLGQTALHRAALAGHLQTCRLLLSYGSDPSIISLQGFTAAQMGNEAVQQILSESTPIRTSD

Variants of: B1
Assay: proteomic peptide phage display deep mutational scan (ProP-PD DMS): M13 P8 16-mer library selected against immobilised GST-tagged bait for four days (rounds), NGS of the eluted pools per day and pseudo-replica; bait immobilised on MaxiSorp plates (10 µg), library pre-cleared on GST, 2 h binding at 4 °C, five washes; one round per day, days 1-4; value from days 2 and 3

Variant	screen value
chain 1 F16Y	0.011 average fractional NGS count over selection days 2 and 3 (reads of this peptide / all reads for the bait, averaged over …
chain 1 F16W	0.000272 average fractional NGS count over selection days 2 and 3 (reads of this peptide / all reads for the bait, averaged over …
chain 1 F16V	0.00271 average fractional NGS count over selection days 2 and 3 (reads of this peptide / all reads for the bait, averaged over …
chain 1 F16A	0.00179 average fractional NGS count over selection days 2 and 3 (reads of this peptide / all reads for the bait, averaged over …
chain 1 F16I	0.000483 average fractional NGS count over selection days 2 and 3 (reads of this peptide / all reads for the bait, averaged over …
chain 1 F16L	0.00209 average fractional NGS count over selection days 2 and 3 (reads of this peptide / all reads for the bait, averaged over …
chain 1 F16E	0.000221 average fractional NGS count over selection days 2 and 3 (reads of this peptide / all reads for the bait, averaged over …
chain 1 F16G	0.000376 average fractional NGS count over selection days 2 and 3 (reads of this peptide / all reads for the bait, averaged over …
chain 1 F16Q	0.000905 average fractional NGS count over selection days 2 and 3 (reads of this peptide / all reads for the bait, averaged over …
chain 1 F16P	0.0012 average fractional NGS count over selection days 2 and 3 (reads of this peptide / all reads for the bait, averaged over …
chain 1 F16N	0.000118 average fractional NGS count over selection days 2 and 3 (reads of this peptide / all reads for the bait, averaged over …
chain 1 F16D	0.000232 average fractional NGS count over selection days 2 and 3 (reads of this peptide / all reads for the bait, averaged over …
chain 1 F16H	0.00294 average fractional NGS count over selection days 2 and 3 (reads of this peptide / all reads for the bait, averaged over …
chain 1 F16M	0.00196 average fractional NGS count over selection days 2 and 3 (reads of this peptide / all reads for the bait, averaged over …
chain 1 F16R	0.00135 average fractional NGS count over selection days 2 and 3 (reads of this peptide / all reads for the bait, averaged over …
chain 1 D12M	0.000556 average fractional NGS count over selection days 2 and 3 (reads of this peptide / all reads for the bait, averaged over …
chain 1 D12I	0.000718 average fractional NGS count over selection days 2 and 3 (reads of this peptide / all reads for the bait, averaged over …
chain 1 D12E	0.00128 average fractional NGS count over selection days 2 and 3 (reads of this peptide / all reads for the bait, averaged over …
chain 1 D12S	0.000143 average fractional NGS count over selection days 2 and 3 (reads of this peptide / all reads for the bait, averaged over …
chain 1 D12Q	0.000387 average fractional NGS count over selection days 2 and 3 (reads of this peptide / all reads for the bait, averaged over …
chain 1 D12A	0.000288 average fractional NGS count over selection days 2 and 3 (reads of this peptide / all reads for the bait, averaged over …
chain 1 D12L	0.000574 average fractional NGS count over selection days 2 and 3 (reads of this peptide / all reads for the bait, averaged over …
chain 1 S15R	0.000309 average fractional NGS count over selection days 2 and 3 (reads of this peptide / all reads for the bait, averaged over …
chain 1 S15L	0.00151 average fractional NGS count over selection days 2 and 3 (reads of this peptide / all reads for the bait, averaged over …
chain 1 S15P	0.000545 average fractional NGS count over selection days 2 and 3 (reads of this peptide / all reads for the bait, averaged over …

Variant	screen value
chain 1 S15K	0.000127 average fractional NGS count over selection days 2 and 3 (reads of this peptide / all reads for the bait, averaged over …
chain 1 S15I	0.000286 average fractional NGS count over selection days 2 and 3 (reads of this peptide / all reads for the bait, averaged over …
chain 1 S15A	0.00154 average fractional NGS count over selection days 2 and 3 (reads of this peptide / all reads for the bait, averaged over …
chain 1 S15H	0.000369 average fractional NGS count over selection days 2 and 3 (reads of this peptide / all reads for the bait, averaged over …
chain 1 S15T	0.000479 average fractional NGS count over selection days 2 and 3 (reads of this peptide / all reads for the bait, averaged over …
chain 1 S15Y	0.000762 average fractional NGS count over selection days 2 and 3 (reads of this peptide / all reads for the bait, averaged over …
chain 1 S15W	0.000372 average fractional NGS count over selection days 2 and 3 (reads of this peptide / all reads for the bait, averaged over …
chain 1 S15V	0.000578 average fractional NGS count over selection days 2 and 3 (reads of this peptide / all reads for the bait, averaged over …
chain 1 S15E	0.000326 average fractional NGS count over selection days 2 and 3 (reads of this peptide / all reads for the bait, averaged over …
chain 1 S15M	0.000289 average fractional NGS count over selection days 2 and 3 (reads of this peptide / all reads for the bait, averaged over …
chain 1 S15N	0.000592 average fractional NGS count over selection days 2 and 3 (reads of this peptide / all reads for the bait, averaged over …
chain 1 S15Q	0.000297 average fractional NGS count over selection days 2 and 3 (reads of this peptide / all reads for the bait, averaged over …
chain 1 S15D	0.000182 average fractional NGS count over selection days 2 and 3 (reads of this peptide / all reads for the bait, averaged over …
chain 1 Q7L	0.00476 average fractional NGS count over selection days 2 and 3 (reads of this peptide / all reads for the bait, averaged over …
chain 1 Q7M	0.00158 average fractional NGS count over selection days 2 and 3 (reads of this peptide / all reads for the bait, averaged over …
chain 1 Q7E	0.000295 average fractional NGS count over selection days 2 and 3 (reads of this peptide / all reads for the bait, averaged over …
chain 1 Q7I	0.000144 average fractional NGS count over selection days 2 and 3 (reads of this peptide / all reads for the bait, averaged over …
chain 1 Q7Y	0.00125 average fractional NGS count over selection days 2 and 3 (reads of this peptide / all reads for the bait, averaged over …
chain 1 Q7H	0.00147 average fractional NGS count over selection days 2 and 3 (reads of this peptide / all reads for the bait, averaged over …
chain 1 Q7F	0.00823 average fractional NGS count over selection days 2 and 3 (reads of this peptide / all reads for the bait, averaged over …
chain 1 Q7T	0.000465 average fractional NGS count over selection days 2 and 3 (reads of this peptide / all reads for the bait, averaged over …
chain 1 Q7W	0.000561 average fractional NGS count over selection days 2 and 3 (reads of this peptide / all reads for the bait, averaged over …
chain 1 Q7K	0.000537 average fractional NGS count over selection days 2 and 3 (reads of this peptide / all reads for the bait, averaged over …
chain 1 Q7V	0.00169 average fractional NGS count over selection days 2 and 3 (reads of this peptide / all reads for the bait, averaged over …
chain 1 Q7G	0.00109 average fractional NGS count over selection days 2 and 3 (reads of this peptide / all reads for the bait, averaged over …

Variant	screen value
chain 1 Q7S	0.000276 average fractional NGS count over selection days 2 and 3 (reads of this peptide / all reads for the bait, averaged over …
chain 1 Q7D	0.00248 average fractional NGS count over selection days 2 and 3 (reads of this peptide / all reads for the bait, averaged over …
chain 1 R8E	0.000101 average fractional NGS count over selection days 2 and 3 (reads of this peptide / all reads for the bait, averaged over …
chain 1 P11A	0.000639 average fractional NGS count over selection days 2 and 3 (reads of this peptide / all reads for the bait, averaged over …
chain 1 P11G	0.0132 average fractional NGS count over selection days 2 and 3 (reads of this peptide / all reads for the bait, averaged over …
chain 1 L6P	0.000739 average fractional NGS count over selection days 2 and 3 (reads of this peptide / all reads for the bait, averaged over …
chain 1 L6W	0.000131 average fractional NGS count over selection days 2 and 3 (reads of this peptide / all reads for the bait, averaged over …
chain 1 L6Q	0.000145 average fractional NGS count over selection days 2 and 3 (reads of this peptide / all reads for the bait, averaged over …
chain 1 L6D	0.00436 average fractional NGS count over selection days 2 and 3 (reads of this peptide / all reads for the bait, averaged over …
chain 1 L6G	0.000481 average fractional NGS count over selection days 2 and 3 (reads of this peptide / all reads for the bait, averaged over …
chain 1 L6H	0.000142 average fractional NGS count over selection days 2 and 3 (reads of this peptide / all reads for the bait, averaged over …
chain 1 L6N	0.000459 average fractional NGS count over selection days 2 and 3 (reads of this peptide / all reads for the bait, averaged over …
chain 1 L6A	0.00118 average fractional NGS count over selection days 2 and 3 (reads of this peptide / all reads for the bait, averaged over …
chain 1 L6V	0.000569 average fractional NGS count over selection days 2 and 3 (reads of this peptide / all reads for the bait, averaged over …
chain 1 L6S	0.000251 average fractional NGS count over selection days 2 and 3 (reads of this peptide / all reads for the bait, averaged over …
chain 1 L6E	0.00197 average fractional NGS count over selection days 2 and 3 (reads of this peptide / all reads for the bait, averaged over …
chain 1 P4E	0.000494 average fractional NGS count over selection days 2 and 3 (reads of this peptide / all reads for the bait, averaged over …
chain 1 P4M	0.00173 average fractional NGS count over selection days 2 and 3 (reads of this peptide / all reads for the bait, averaged over …
chain 1 P4N	0.000673 average fractional NGS count over selection days 2 and 3 (reads of this peptide / all reads for the bait, averaged over …
chain 1 P4I	0.000387 average fractional NGS count over selection days 2 and 3 (reads of this peptide / all reads for the bait, averaged over …
chain 1 P4H	0.00111 average fractional NGS count over selection days 2 and 3 (reads of this peptide / all reads for the bait, averaged over …
chain 1 P4V	0.000162 average fractional NGS count over selection days 2 and 3 (reads of this peptide / all reads for the bait, averaged over …
chain 1 P4D	0.000447 average fractional NGS count over selection days 2 and 3 (reads of this peptide / all reads for the bait, averaged over …
chain 1 P4W	0.000229 average fractional NGS count over selection days 2 and 3 (reads of this peptide / all reads for the bait, averaged over …
chain 1 P4S	0.000214 average fractional NGS count over selection days 2 and 3 (reads of this peptide / all reads for the bait, averaged over …
